Publication doi:10.64898/2025.12.03.692196v2

Tests used:
[1] = substrate: Nc1ncnc2c1ncn2[C@@H]1O[C@H](COP(=O)(O)OP(=O)(O)OP(=O)(O)O)[C@@H](O)[C@H]1O; assay: purified protein, by the assay type
[2] = substrate: C[C@@H](O)[C@H](N)C(=O)O; assay: LC-MS of AMP formed from TC-AMP, Michaelis-Menten; format: biochemical, Homo sapiens; conditions: 250 µM ATP, 50 mM NaHCO3, 10 mM MgCl2, Tricine pH 8.5, 37 °C

B1: YRDCWT (human YRDC, ΔN43) (Homo sapiens; R253K) (protein)
chain: GARLLRLPGSGAVQAASPERAGWTEALRAAVAELRAGAVVAVPTDTLYGLACAASCSAALRAVYRLKGRSEAKPLAVCLGRVADVYRYCRVRVPEGLLKDLLPGPVTLVMERSEELNKDLNPFTPLVGIRIPDHAFMQDLAQMFEGPLALTSANLSSQASSLNVEEFQDLWPQLSLVIDGGQIGDGQSPECRLGSTVVDLSVPGKFGIIKPGCALESTTAILQQKYGLLPSHASYL
Km [1]: 737.5 ± 521.2 µM
kcat [1]: 0.005 ± 0.003 s⁻¹
kcat/Km [1]: 7 ± 6 M⁻¹ s⁻¹

B2: YRDCWT (human YRDC, ΔN43) (Homo sapiens) (protein)
chain: GARLLRLPGSGAVQAASPERAGWTEALRAAVAELRAGAVVAVPTDTLYGLACAASCSAALRAVYRLKGRSEAKPLAVCLGRVADVYRYCRVRVPEGLLKDLLPGPVTLVMERSEELNKDLNPFTPLVGIRIPDHAFMQDLAQMFEGPLALTSANLSSQASSLNVEEFQDLWPQLSLVIDGGQIGDGQSPECRLGSTVVDLSVPGKFGIIRPGCALESTTAILQQKYGLLPSHASYL
Km [2]: 7800 µM

B3: YRDCWT (human YRDC, ΔN43) T89A (Homo sapiens; T89A) (protein)
chain: MSPARRCRGMRAAVAASVGLSEGPAGSRSGRLFRPPSPAPAAPGARLLRLPGSGAVQAASPERAGWTEALRAAVAELRAGAVVAVPTDALYGLACAASCSAALRAVYRLKGRSEAKPLAVCLGRVADVYRYCRVRVPEGLLKDLLPGPVTLVMERSEELNKDLNPFTPLVGIRIPDHAFMQDLAQMFEGPLALTSANLSSQASSLNVEEFQDLWPQLSLVIDGGQIGDGQSPECRLGSTVVDLSVPGKFGIIRPGCALESTTAILQQKYGLLPSHASYL
Km [1]: 230.7 ± 217.6 µM
kcat [1]: 0.02 ± 0.001 s⁻¹
kcat/Km [1]: 90 ± 80 M⁻¹ s⁻¹

B4: YRDCS195A (Homo sapiens; S238A) (protein)
chain: MSPARRCRGMRAAVAASVGLSEGPAGSRSGRLFRPPSPAPAAPGARLLRLPGSGAVQAASPERAGWTEALRAAVAELRAGAVVAVPTDTLYGLACAASCSAALRAVYRLKGRSEAKPLAVCLGRVADVYRYCRVRVPEGLLKDLLPGPVTLVMERSEELNKDLNPFTPLVGIRIPDHAFMQDLAQMFEGPLALTSANLSSQASSLNVEEFQDLWPQLSLVIDGGQIGDGQSPECRLGATVVDLSVPGKFGIIRPGCALESTTAILQQKYGLLPSHASYL
Km [1]: 711.8 ± 175.5 µM
kcat [1]: 0.005 ± 0.0009 s⁻¹
kcat/Km [1]: 7 ± 2 M⁻¹ s⁻¹
